Broadly, the stoichiometry N is a count of units in the complex or per binding partner.

Some results are limits rather than exact numbers.

Assay [1] deals with budding yeast Proliferating Cell Nuclear Antigen (PCNA) (budding yeast). As to the kind of experiment: AUC; sedimentation velocity, 100 µM protein (monomer concentration); trimer to monomers.
The target is the same in assay [2]. As to the kind of experiment: SEC-MALS; gel filtration coupled to multi-angle light scattering; 3 or 0.3 mg/ml (~100 or 10 µM) in 20 mM sodium phosphate, 150 mM NaCl, 0.03% (w/v) sodium azide, pH 7.0. Background: SEC sorts molecules by how far they enter the pores of the column.
Assay [3] concerns the target human Proliferating Cell Nuclear Antigen (PCNA) (human). Nature of the assay: AUC; sedimentation velocity, 100 µM protein (monomer concentration); trimer to monomers.
The target is the same in assay [4]. As to the kind of experiment: SEC-MALS; gel filtration coupled to multi-angle light scattering; 3 or 0.3 mg/ml (~100 or 10 µM) in 20 mM sodium phosphate, 150 mM NaCl, 0.03% (w/v) sodium azide, pH 7.0.

Turning to “budding yeast Proliferating Cell Nuclear Antigen (PCNA) (natural protein)”, in assay [1], the population of monomers in equilibrium with the trimer is under 3% and the stoichiometry N was found to be 3. Further, in assay [2], the population of species with the molecular weight of a dimer of trimers was under 4% and the stoichiometry N was determined as 3.
Regarding “human Proliferating Cell Nuclear Antigen (PCNA) (natural protein)”, in assay [3], the population of monomers in equilibrium with the trimer was under 3% and the stoichiometry N was 3. In assay [4], this substance gave a population of species with the molecular weight of a dimer of trimers of under 4% and a stoichiometry N of 3.
